Reference: publication PMC11230231 (bioRxiv, 2024)

Target: integrin α5β1 on cells (human (endogenous in K562 and MCF10A), UniProt P08648;P05556)
Test: flow cytometry on cells

Chain of integrin α5β1 on cells (P08648 42-1049, chain 1 of 2): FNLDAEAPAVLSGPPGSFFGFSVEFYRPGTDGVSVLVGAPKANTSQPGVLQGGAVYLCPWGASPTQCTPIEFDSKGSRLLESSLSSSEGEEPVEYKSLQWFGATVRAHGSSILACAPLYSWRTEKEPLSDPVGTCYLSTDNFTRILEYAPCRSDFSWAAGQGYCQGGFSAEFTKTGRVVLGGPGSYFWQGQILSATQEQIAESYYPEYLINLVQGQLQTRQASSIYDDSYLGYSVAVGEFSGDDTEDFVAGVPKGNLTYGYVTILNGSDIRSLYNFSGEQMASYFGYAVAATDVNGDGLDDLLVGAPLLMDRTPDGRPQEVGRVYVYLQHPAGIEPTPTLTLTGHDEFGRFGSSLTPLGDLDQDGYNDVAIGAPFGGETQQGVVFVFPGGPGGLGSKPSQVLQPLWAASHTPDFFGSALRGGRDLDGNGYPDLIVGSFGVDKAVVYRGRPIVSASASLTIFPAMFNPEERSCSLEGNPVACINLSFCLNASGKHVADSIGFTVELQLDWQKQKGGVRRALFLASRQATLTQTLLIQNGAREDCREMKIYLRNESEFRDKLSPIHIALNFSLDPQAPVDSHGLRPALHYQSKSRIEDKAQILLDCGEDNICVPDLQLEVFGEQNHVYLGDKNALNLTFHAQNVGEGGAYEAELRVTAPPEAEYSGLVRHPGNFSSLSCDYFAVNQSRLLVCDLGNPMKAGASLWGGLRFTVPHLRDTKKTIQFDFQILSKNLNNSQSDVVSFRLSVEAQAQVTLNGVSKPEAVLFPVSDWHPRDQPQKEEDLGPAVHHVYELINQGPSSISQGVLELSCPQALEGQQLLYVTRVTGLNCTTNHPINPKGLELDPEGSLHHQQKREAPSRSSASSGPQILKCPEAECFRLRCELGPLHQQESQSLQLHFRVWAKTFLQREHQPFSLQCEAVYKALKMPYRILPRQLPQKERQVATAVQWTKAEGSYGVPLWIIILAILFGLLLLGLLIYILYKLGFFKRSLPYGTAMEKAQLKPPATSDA
Chain of integrin α5β1 on cells (P05556 21-798, chain 2 of 2): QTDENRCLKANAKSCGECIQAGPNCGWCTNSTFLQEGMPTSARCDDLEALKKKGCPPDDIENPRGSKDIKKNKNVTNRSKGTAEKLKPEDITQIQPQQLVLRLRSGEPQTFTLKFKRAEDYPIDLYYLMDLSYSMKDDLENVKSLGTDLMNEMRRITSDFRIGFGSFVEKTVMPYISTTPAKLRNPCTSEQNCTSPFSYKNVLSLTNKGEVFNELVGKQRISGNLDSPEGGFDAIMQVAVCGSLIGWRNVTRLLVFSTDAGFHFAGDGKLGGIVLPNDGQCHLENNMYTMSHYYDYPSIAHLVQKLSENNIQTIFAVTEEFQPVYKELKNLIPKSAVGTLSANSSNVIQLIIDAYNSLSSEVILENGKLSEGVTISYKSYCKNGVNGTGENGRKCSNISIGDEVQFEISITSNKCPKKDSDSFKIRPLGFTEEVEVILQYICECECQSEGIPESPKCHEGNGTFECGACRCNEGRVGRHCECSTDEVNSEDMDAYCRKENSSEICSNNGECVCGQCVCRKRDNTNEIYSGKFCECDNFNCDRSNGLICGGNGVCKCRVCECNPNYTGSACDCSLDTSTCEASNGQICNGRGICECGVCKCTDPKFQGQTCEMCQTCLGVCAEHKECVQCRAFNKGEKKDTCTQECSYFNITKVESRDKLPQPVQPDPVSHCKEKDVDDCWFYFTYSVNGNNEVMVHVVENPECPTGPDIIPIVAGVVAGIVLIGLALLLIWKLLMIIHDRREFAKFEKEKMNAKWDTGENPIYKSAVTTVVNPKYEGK

Kd: 150 ± 20 µM
Binder: GRRGDGATGH [RGD peptide (GRRGDGATGH)]
